Reference: patent US20240084019A1 (OSE IMMUNOTHERAPEUTICS, published 2024)

Tests used:
[1] = target: T1, Biot-C7 peptide: biotinylated NH2-PYHTLNLLELHHTAMPGSVFSLGLPLATALAIA-COOH (human, biotinylated (position not given)); assay: activity ELISA on biotinylated C7 peptide; column head printed ED50 (ng/ml)
T1 construct: also called C7biot; biotinylated antigen-specific peptide
T1 peptide: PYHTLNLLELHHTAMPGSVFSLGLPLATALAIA

[2] = target: T1, Biot-C7 peptide: biotinylated …; assay: activity ELISA on Biot-C7 peptide; column head printed ED50 (ng/ml)
[3] = target: T1, Biot-C7 peptide: biotinylated …; assay: activity ELISA on Biot-C7 peptide; column head printed ED50 (ng/ml); batch #170919
[4] = target: T1, Biot-C7 peptide: biotinylated …; assay: activity ELISA on Biot-C7 peptide; column head printed ED50 (ng/ml); second batch, no number

B1: HDLD humanized anti-CMKLR1 antibody (antibody, human IgG1, V domains shown)
VH: EVQLVESGGGLVQPGGSLRLSCAASGFTFSSYAMSWVRQAPGKGLELVATINRYGGSTYYAASVKGRFTISRDNSKNTLYLQMNSLRAEDTAVYYCPKLIYYGNEGDSWGQGTLVTVSS
VL: AIQLTQSPSSLSASVGDRVTITCRASQSVSFLHWYQQKPGKAPKRWIYDATKLTSGVPSRFSGSGSGTDFTLTISSLQPEDFATYYCQQWQSKPPLTFGGGTKVEIK
notes: Variable domains only; fused to constant fragment of human immunoglobulin (human IgG1, kappa)
EC50 [1]: 0.195 µg/mL
EC50 [2]: 0.193 µg/mL

B2: HD-LDT52S humanized anti-CMKLR1 antibody (antibody, V domains shown)
VH: EVQLVESGGGLVQPGGSLRLSCAASGFTFSSYAMSWVRQAPGKGLELVATINRYGGSTYYAASVKGRFTISRDNSKNTLYLQMNSLRAEDTAVYYCPKLIYYGNEGDSWGQGTLVTVSS
VL: AIQLTQSPSSLSASVGDRVTITCRASQSVSFLHWYQQKPGKAPKRWIYDASKLTSGVPSRFSGSGSGTDFTLTISSLQPEDFATYYCQQWQSKPPLTFGGGTKVEIK
notes: fused to constant fragment of human immunoglobulin
EC50 [2]: 0.237 µg/mL

B3: HEF-LDT52S humanized anti-CMKLR1 antibody (antibody, V domains shown)
VH: EVQLVESGGGLVQPGGSLRLSCAASGFTFSSYAMSWVRQAPGKGLELVSTISGSGGSTYYAASVKGRFTISRDNSKNTLYLQMNSLRAEDTAVYYCPKLIYYGNEGDSWGQGTLVTVSS
VL: AIQLTQSPSSLSASVGDRVTITCRASQSVSFLHWYQQKPGKAPKRWIYDASKLTSGVPSRFSGSGSGTDFTLTISSLQPEDFATYYCQQWQSKPPLTFGGGTKVEIK
notes: as for B2
EC50 [2]: 0.126 µg/mL

B4: HALA humanized anti-CMKLR1 antibody (VHvAv3-23*04 + VLvAv1-13*01) (antibody, human IgG1, V domains shown)
VH: EVQLVESGGGLVQPGGSLRLSCAASGFTFSSYGMSWVRQAPGKGLELVATINRYGGSTYYPDSVKGRFTISRDNSKNTLYLQMNSLRAEDTAVYYCPRLIYYGNEGDSWGQGTLVTVSS
VL: AIQLTQSPSSLSASVGDRVTITCSASSSVSFMHWYQQKPGKAPKRWIYDTTKLTSGVPSRFSGSGSGTDYTLTISSLQPEDFATYYCQQWNSKPPLTFGGGTKVEIK
notes: Variable domains only; also called germline antibody HALA; IGHV3-23*04 + IGKV1-13*02
EC50 [3]: 0.253 µg/mL
EC50 [1]: 0.557 µg/mL
EC50 [4]: 0.195 µg/mL

B5: HEF-LEF humanized anti-CMKLR1 antibody (antibody, V domains shown)
VH: EVQLVESGGGLVQPGGSLRLSCAASGFTFSSYAMSWVRQAPGKGLELVSTISGSGGSTYYAASVKGRFTISRDNSKNTLYLQMNSLRAEDTAVYYCPKLIYYGNEGDSWGQGTLVTVSS
VL: AIQLTQSPSSLSASVGDRVTITCRASQSVSFLHWYQQKPGKAPKRLIYDASKLESGVPSRFSGSGSGTDFTLTISSLQPEDFATYYCQQWQSKPPLTFGGGTKVEIK
notes: as for B2
EC50 [2]: 0.183 µg/mL

B6: HCLD humanized anti-CMKLR1 antibody (antibody, human IgG1, V domains shown)
VH: EVQLVESGGGLVQPGGSLRLSCAASGFTFSSYGMSWVRQAPGKGLELVATINRYGGSTYYAASVKGRFTISRDNSKNTLYLQMNSLRAEDTAVYYCPKLIYYGNEGDSWGQGTLVTVSS
VL: AIQLTQSPSSLSASVGDRVTITCRASQSVSFLHWYQQKPGKAPKRWIYDATKLTSGVPSRFSGSGSGTDFTLTISSLQPEDFATYYCQQWQSKPPLTFGGGTKVEIK
notes: as for B1
EC50 [1]: 0.333 µg/mL

B7: HDLC humanized anti-CMKLR1 antibody (antibody, human IgG1, V domains shown)
VH: EVQLVESGGGLVQPGGSLRLSCAASGFTFSSYAMSWVRQAPGKGLELVATINRYGGSTYYAASVKGRFTISRDNSKNTLYLQMNSLRAEDTAVYYCPKLIYYGNEGDSWGQGTLVTVSS
VL: AIQLTQSPSSLSASVGDRVTITCRASQSVSFLHWYQQKPGKAPKRWIYDATKLTSGVPSRFSGSGSGTDFTLTISSLQPEDFATYYCQQWNSKPPLTFGGGTKVEIK
notes: as for B1
EC50 [1]: 0.197 µg/mL

B8: HCLC humanized anti-CMKLR1 antibody (antibody, human IgG1, V domains shown)
VH: EVQLVESGGGLVQPGGSLRLSCAASGFTFSSYGMSWVRQAPGKGLELVATINRYGGSTYYAASVKGRFTISRDNSKNTLYLQMNSLRAEDTAVYYCPKLIYYGNEGDSWGQGTLVTVSS
VL: AIQLTQSPSSLSASVGDRVTITCRASQSVSFLHWYQQKPGKAPKRWIYDATKLTSGVPSRFSGSGSGTDFTLTISSLQPEDFATYYCQQWNSKPPLTFGGGTKVEIK
notes: as for B1
EC50 [1]: 0.167 µg/mL

B9: anti-CMKLR1 antibody 2G1 (parental chimeric antibody) (antibody, human IgG1, V domains shown)
VH: EVQLVASGGGLVQPGGSLKLSCAASGFTFSSYGMSWVRQTPDRRLELVATINRYGGSTYYPDSVKGRFTISRDNAKNTLYLQMSSLKSEDTAMYYCPRLIYYGNEGDSWGQGTTLTVSS
VL: QIVLTQSPAIMSASPGEKVTMTCSASSSVSFMHWYQQKSGTSPKRWIYDTTKLTSGVPARFSGSGSGTFYSLTISSMEAEDAATYYCQQWNSKPPLTFGPGTKLELKR
notes: also called 2G1 wt; 2G1 WT
EC50 [1]: 0.269 µg/mL
EC50 [2]: 0.222 µg/mL
